What was measured:
Hfq;Crc [1] = molecular target: T1, Hfq;Crc (Pseudomonas aeruginosa PAO1;Pseudomonas …, UniProt Q9HUM0;Q51380 1-82;1-259, |); experiment: co-IP (anti-Hfq); RNA-dependent Crc capture; ES buffer: 10 mM Tris pH 8.0, 10 mM KCl, 40 mM NaCl, 1 mM MgCl2; MST + 0.05% Tween-20, room temperature; EMSA + 25 ng tRNA per 10 ul, 37 C 15 min (Fig 6D); NMR; details: protein: recombinant;recombinant; tags: none stated;His6-tag (N-terminal) removed with HRV14-3C; chain copies: 6;1
Hfq;Crc [2] = molecular target: T1, Hfq;Crc; experiment: MST; 30 nM labelled Hfq6, RNA titrated, 360 nM Crc; ES buffer: 10 mM Tris pH 8.0, 10 mM KCl, 40 mM NaCl, 1 mM MgCl2; MST + 0.05% Tween-20, room temperature; EMSA + 25 ng tRNA per 10 ul, 37 C 15 min (Fig 6D); NMR; details: protein: recombinant;recombinant; tags: none stated;His6-tag (N-terminal) removed with HRV14-3C; chain copies: 6;1; label: 5'-32P (EMSA); unlabelled (MST)
Hfq = Hfq (Pseudomonas aeruginosa PAO1, UniProt Q9HUM0 1-82); experiment: MST; 30 nM labelled Hfq6, no Crc; ES buffer: 10 mM Tris pH 8.0, 10 mM KCl, 40 mM NaCl, 1 mM MgCl2; MST + 0.05% Tween-20, room temperature; EMSA + 25 ng tRNA per 10 ul, 37 C 15 min (Fig 6D); NMR; details: protein: recombinant; tags: none stated; chain copies: 6; label: 5'-32P (EMSA); unlabelled (MST)

Question: Does AAAAAAAAAAAAAAAAAAAAAAAAAAA (ssRNA) [poly(A)27] bind (Hfq;Crc [1])?
Answer: binds

Question: AAAAAUAACAACAAGAGG (ssRNA) [amiE6ARN] was tested. Which Kd (Hfq;Crc [2]) did it give?
Answer: 33.9 ± 1.7 nM

Question: And the Kd (Hfq)?
Answer: 43.2 ± 2.3 nM

From PMC5815094, “Interplay between the catabolite repression control protein Crc, Hfq and RNA in Hfq-dependent translational regulation in Pseudomonas aeruginosa”
